# Measurements from the RNAGym collection of RNA variant scans (doi:10.1073/pnas.2313332121).
# B1: TPR t1 (parent)
# chain: GACCAAUCUGCCCUCAGAGCUCGAGAACAUCUUCGGAUGCAGAGGAGGCAGGCUUCGGUGGCGCGAUAGCGCCAACGUCCUCAACCUCCAAUGCAUCCCACCACAUGAUGAUGCCUGAAGAGCCUUGGUUUUUUG
# Variants of: B1
# Experiment: polymerase ribozyme fitness, log enrichment relative to wild type (log ratio); higher = more active; in vitro selection for triplet polymerase activity
# How it was run: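 Streptavidin-bead capture of gel-excised extended constructs, followed by RT-PCR, closed a single triplicate in vitro selection round. That round began by annealing PCR-built, transcribed mutant libraries of each subunit of a heterodimeric triplet polymerase ribozyme with a biotinylated primer, the partner subunit and triplets, then incubating them frozen at −7 °C. After Illumina sequencing of inputs and outputs, genotypes needed ≥10 input reads and ≥1 read per output. Fitness is the base-2 logarithm of genotype enrichment over wild-type enrichment, using inverse-variance-weighted replicate averages.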
row,Variant,polymerase ribozyme fitness (log ratio)
1,GACCAAUCUGCCUUCAGAGCUCGAGAACAUCUUCGGAUGCAGAGGAGGCAGGCUUCGGUGGCGCGAUAGCGCCAACGUCCUCAACCUACAAUGCAUCCCACCACAUGAUGAUGCCUGAAGAGCCUUGGUUUUUUG,-0.243
2,GACCAAUCUGCCUUCAGAGCUCGAGAACAUCUUCGGAUGCAGAGGAGGCAGGCUUUGGUGGCGCGAUAGCGCCAACGUCCUCAACCUCCAAUGCAUCCCACCACAUGAUGGUGCCUGAAGAGCCUUGGUUUUUUG,0.163
3,GACCAAUCUGCCUUCAGAGCUCGAGAAGAUCUUGGGAUGCAGAGGAGGAAGGCUUCGGUGGCGCGAUAGCGCCAAAGUCCUCAACCUCCAAUGCAUCCCCCCACAUGAAGAUGCCUGAAGAGGCUUGGUUUUUUG,-6.13
4,GACCAAUCUGCCUUCAGAGCUCGAGAACAUCUUCGGAUGCAGAGGAGGCAGGCUUCGGUGGCGCGAUAGAGUCAACGUCCUCAACCUCCAAUGCAUCCCACCACAUGAUGAUGCCUGAAGAGCCUUGGUUUUUUG,-1.42
5,GACCAAUCUGCCUUCAGAGCUCGAGAACAUCUUCGGAUGCAGAGGAGGCAGGCUUCGGUGGCGCGAUAGCGUCAACGUCCUCAACCUCCAAUGCAUCCCACCACAUGAUGAUGCCUGAAGAGCCUUGGUUUUUUG,-0.334
6,GACCAAUCUGCCUUCAGAGCUCGAGAACAUCUUCGGAUGUAGAGGAGGCAGGCUUCGGUGGCGCGAUAGCGCCAACGUCCUCAACCUCCAAUGCAUCCCACCACAUGAUGAUGCCUGAAGAGCUUUGGUUUUUUC,0.605
7,GACCAAUCUGCCUUCAGAGCUCGAGAACAUCUUCGGAUGCAGAGGAGGCAGGCUUCGGUGGCGCGAUAGCGCCAACGUCCUCAACUUCCAAUGCAUCCCACCACAUGAUGAUGCCUGAAGAGCCUUGGUUUUUUG,-0.506
8,GACCAAUCUGCCUUCAGAGCUCGAGAACAUCUUCGGAUGCAGAGGAGGCAGGCUUCGGUGGCGCGAUAGCGCCAACGUCCUCAACCUCGAAUGCAUCCCACCACAUGAUGAUGCCUGAAGAGCCUUGGUUUUUUG,-1.01
9,GACCAAUCUGCCUUGAGAGCUCGAGAACAUCUUCGGAUGCAGAGGAGGCAGGCUUCGGUGGCGCGAUAGCGCCAACGUCCUCAACCUACAAUGCACCCCACCACAUGAUGAUGCCUGAAGAGCCUUGGUUUUUUG,-2.33
10,GACCAAUCUGCCUUCAGAGCUGGAGCACAUCUUCGGUUGCGGAGGAGGCGGGCUUCGGUGGCGCGAUAGCGCCAACGUCCUCAACCUCCAAUGCAUCCCACCACAUGAUGAUGCUUGAAGAGCCUUGGUUUUUUG,-3.21
11,GACCAAUCUGCCUUCAGAGCUCGAGAACAUCUUCGGAUGCAGAGGAGGUAGGCUUCAGUGGCGCGAUAGCGCCAACGUCCUGAACCUCCAAUGCAUCCCACCACAAGAUGAUGCCUGAAGAGCCUUGGUUUUUUG,-0.895
12,GACCAAUCUGCCUUCAGAGCUCGAGAACAUCUUCGGAUGCAGAGGAGGCAGGCUUCGGUGGCGCGAUAGCGCCAACGUCCUCAACCUCCAAUGCAUCACACCACAUGAUGAUGCCUGAAGAGCCUUGGUUUUUUG,-4.9
13,GACCAAUCUGCCUUCAGAGCUGGAGAACAUCUUCGGAUGCAGAGGAGGUAGGCUUCGGUGGCGCGAUAGCCCCAACGUCCUCAACCUCCAAUGCAUCCCACUACAUGAUGAUGCCUGAAGAACCUUGGUUUUUUG,-5.74
14,GACCAAUCUGCCUUCAAAGCUCGAGAACAUCUUCGGAUGCAGCGGAGGCAGGCUUCGGCGGCGCGAUAGCGCCAACGUCCUCAACCUCCAAUGCAUCCCACCACAUGAUGAUGCCUGAAGAGCCUUGGUUUCUUG,-4.55
15,GACCAAUCUGCCUUCAGAGCUCGAGAAGAUCUUCGGAUGCAGGGGAGGCAGGCUUCGGUGGCGCGAUAGCGCCAACGUCCUCAACCUCCAAUGCAUCCCACCACAUGAUCAUGCCUGAAGAGCCUUGGUUUUUUG,-0.443
16,GACCAAUCUGCCUUCAGAGCUCGAGAACAUCUUCGGAUGCAGAGGAGGCAGGCUUCGGUGGCGCGAUAGCGCUAACGUCCUCAACCUCCAAUGCAUCCCACCACAUGAUGAUGCCUGAAGAGCUUUAGUUUUUUG,0.275
17,GACCAAUCUGCCUUCAGAGCUCGAGAACAUCUUCGGAUGCAGAGGAGGCAGGCUUCGGUGGCGCGAUAGUGCCAACGUCCUCAACCUCCAAUGCAUCCCACCACAUGAAGAUGCCUGAAGAGCCUUGGUUUAUUG,-6.56
18,GACCAAUCUGCCUUCAGAGCUCGAGAACAUCUUUGGAUGUAGAGGAGGCGGGCUUCGGCGGCGCGAUAGCGCCAACGUCCUCAACCUCCAAUGCAUCCCACCACAUGAUGAUGCCUGAAGAGCCUUGGUUUUUUG,-5.78
19,GACCAAUCUGCCUUCAGAGCUCGAGAAAAUCUUCGGAUGCAGAGGAGGCAGGCUUCGGUGGCGCGAUAGCGCCAACGUCCUCAACCUCCAAUGCAUCCCACCACAUGAUCAUGCCUGAAAAGCCUUGGUUUUUUG,-1.9
20,GACCAAUCUGCCUUCAGAGCUCGAGAACAUCUUCGGAUGCAGAGGAGGCAGGCUUCGGUGGCGCGAUAGCGCCAAUGUCCUCAACCUCCAAUGCAUCCCACCACAUGAUGAUGCCUGAAGAGCCUUGGUUUUUUG,-0.121
21,GACCAAUCUGCCUUCAGAGCUCGAGAACAUCUUCGGAUGCAGAGGAGGCAGGCUUCGGUGGCGCGAUAGCGCCAACGUCCUCAACCUCCAAUGCAUCCCACUACAUGAUGAUGCCUUAAGAGCCUUGGUUUUUUG,-3.38

row,Variant,polymerase ribozyme fitness (log ratio)
1,GACCAAUCUGCCUUCAGAGCUCGAGAACAUCUUCGGAUGCAGAGGAGGCAGGCUUCGGUGGCGCGAUAGCGCCAACGUCCUCAACCUCCAAUGCAUCCCACCAUAUGAUGAUGCCUGAAGAGCCUUGGUUUUUUG,-0.259
2,GACCAAUCUGCCUUCAGAGCUCGAGAACAUCUUCGGAUGCAGAGGAGGCAGGCUUUGGUGGCGCGAUAGCGCCAACGUCCUCAACCUCCAAUGCAUCCCACCACAUGAUGAUGCCUGAAGAGCCUUGGUUUUUUG,0.718
3,GACCAAUCUGCCUUCAGAGCUCGAGAACAUCUUCGGAUGCAGAGGAGGCAGGGUUAGGUGGCGCGAUAGCGCCAACGUCCUCAACCUCCAAUGCAUCCCACCACAUGAUGAUGCCUGAAGAGCCUUGGUUUUUUG,-0.438
4,GACCAAUCUGCCUUCAGAGUUCGAGAACAUCUUCGGAUGCAGAGGAGGCAGGCUUCGGUGGCUCGAUAGCGCCAACGUCCUCAACCUCCAAUGCAUCCCACCACAUGAUGAUGCCUGAAGAGCCUUGGUUUUUUG,-2.31
5,GACCAAUCUGCCUUCAGAGCUCGAGAACAUCUUCGGAUGCAGAGGAGGCAGGCUUCGGUGGCGCGAUAGCGCCAACGUCCUCAACCUCCAAUGCAUCCCACCACAUGAUGAUGCCUGAAGUGCCUUGGUUUUUUG,2.03
6,GACCAAUCUGCCUUCAGAGCUCGAGAACAUCUUGGGAUGCAGAGGAUGCAGGCUUCGGUGGCGCGAUAGCGGCAACGUCCUCAACCUCCAAUGCAUCCCACCACAUGAUGAAGCCUGAAGAGCCUUGGUUUUUUG,-5.6
7,GACCAAUCUGCCUUCAGAGCUCGAGAACAUCUUCGGAUGCAGAGGAGGCAGGCUUAGGUGGCGCGAUAGCGCCAACGUCCUCAACCUCCAAUGCAGCCCACCACAUGAUGAUGCCUGAAGAGCCUUGGUUUUUUG,-0.637
8,GACCAAUCUGCCUUCAGAGCUCGAGAACAUCUUCGGAUGCAGAGGAGGCAGGACUCGGUGGCGCGAUAGCGCCAACGUCCUCAACCUCCAAUGCAUCCCACCACAUGAUGAUGCCUGAACAGCCUUGGUUUUUUG,1.15
9,GACCAAUCUGCCUUCAAAGCUCGAGAACAUCUUCGGAUGCAGAGGAGGCAGGCUUCGGUGGCGCGAUAGCGCCAACGUCCUCAACCUCCAAUGCAUCCCACCACAUGAUGAUGCCUGAAGAGCCUUGGUUUUUUG,-1.44
10,GACCAAUCUGCCUUCAGAGCUCGAGAACAUCUUCGGAUGCAGAGGAGGCAGGCUUGGGUGGUGCGAUAGCGCCGACGUCCUCAACCUCCAAUGCAACCCCCCACAUGAUGAUGCCUGAAGAGCCUUGGUUUUUUG,-4.8
11,GACCAAUCUGCCUUCAGAGGUCGAGAACAUCUUCGGAUGCAGAGAAGGCAGGCUUCGGUGGCGCGAUAGCGCCAACGUCCUCAACCUCCAAUGCAACCCACCACAUGAUGAUGCCUGAAGAGCCUUGGUUUUUUG,-4.96
12,GACCAAUCUGCCUUCAGAGCUCGAGAACAUCUUCGGAUGCAGAGGAGGCAGGCUUCGGUGGCGCGAUAGCGACAACGUCCUCAACCUCCAAUGCAUCCCAACACAUGAUGAUGACUGAAGAGCCUUGGUUUUUUG,-1.86
13,GACCAAUCUGCCUUCAGAGCUCGAGAACAUCUUCGGAUGCAGAGGAGGCAGGCUUCGGUGGCGCGAUAGCGCCAACGUCCUCAACCUCCAAUGCAUCCUACCACAUGAUGAUGCCUGAAGAGCCUUGGUUUUGUG,-2.46
14,GACCAAUCUGCCUUUAGAGCUCGAGAACAUCUUCGGAUGCAGAGGAGGCAGGCGUCGGUGGCGCGAUAGCGCCAACGUCCACAACCUCCAAUGCAACCCACCACAUGAUGAUGCCUGAAGAGCCUUGGUUUUUUG,-3.41
15,GACCAAUCUGCCUUCAGAGCUCGAGAAGAUCUUCGGAUGCAGGGGAGGCAGGCUUCGGUGGUGCGAUAGCGCCAACGUCCUCAACCUCCAAUGCAUCCCACCACAUGAUCAUGCCUGAAGAGCCUUGGUUUUUUG,-1.17
16,GACCAAUCUGCCUUCAGAGCUCGAGAAGAUCUUCGGAUGCAGAGGAGGCAGGCUUCGGUGGCGCGAUAGCGCCAACGUCCUCAACCUCCAAUGCAUCCCAACAAAUGAUGAUGCCUGAAGAGCCUUGGUUUUUUG,-5.64
17,GACCAAUCUGCCUUCAGAGCUCGAGAACAUCUUUGGAUGCAGAGGAGGCAGGCUUCGGUGGCGCGAUAGCGCCAACGUCCUCAACCUCCAAUGCAUCCCACCACAUGAUGAUGCCUGAAGAGCCUUGGUUUUUUG,-4.26
18,GACCAAUCUGCCUUCAGAGCUCGAGAACAUCUUCGGAUGCAGAGGAGGCAGGCUUCGGUGGCGCGAUAGCGUCAACGUCCUCAACCUCCAAUGGAUCCCACCACAUGAUGAUGCCUGAAGAGCCUUGGUUUUUUG,-1.35
19,GACCAAUCUGCCUUCAGAGCUCGAGAACAUCUUCGGAUGUAGUGGAGGCAGGCUUCGGUGGCGCGAUAGCGGCAACGUCCUCAGCCUCGAAUGCAUCCCACCACAUGAUGAUGCCUGAAGAGCCUUGGUUUUUUG,-6.24
20,GACCAAUCUGCCUUCAGAGCUCGAGAACAUCUUCGGAUGCAGAGGAGGCAGGCUUUGGUGGCGCGAUAGCGCCAACGUCCUCAACCUCCGAUGCAUCCCACCACAUGAUGAUGCCUGAAGAGCCUUGGUUUUUUG,0.402
21,GACCAAUCUGCCUUCAGAGCUCGAGAAGAUCUUCGGAUGCAGAGGAGGCAGGCUUCGGUGGCGCGAUAGCGCCAACGUCCUCAACCUCCAAUGCAUCCCACCACAUGAUGAUGCCUGAACAGCCUUGGUUUUUUG,-1.05
